The assay addresses USP14 (UniProt P54578). Put plainly: co-IP, immunoblot. The note with it: reference: ALKBH5 wild type; sites S64,S69. A general note: In western blotting, separated proteins are transferred to a membrane and probed.

In the case of “ALKBH5 (from UniProt Q6P6C2) ALKBH5 S64A/S69A”, the “binding against the reference” value was “weaker”.

The record behind these values is PMC11840735.
